“Also recorded” adds a separate entry of the source.
Assays:
[1] = molecular target: T1, pro TGF-β (Homo sapiens, UniProt P01137); assay: Co-immunoprecipitation / Western blot of EMI domain or emilin1 with pro TGF-β in HEK293T cells; format: binding; details: HEK293T cell extracts or culture medium; anti-Flag / anti-LAP IP; FIG. 4A-4C
T1 construct: expressed in transfected cells; host or cells: HEK293T
Excerpt: • The construct for emilin 1 expression was engineered in pCS2 vector (Rupp R. A. et al., 1994, Genes Dev 8, 1311-1323) (for a physical map of the vector, see the site faculty.washington.edu/rtmoon/pcs2+.html) as described (Zanetti M. et al., 2004, Mol Cell Biol 24, 638-650); the vector used for proTGF-β expression in MEF and HEK293T cells is pCDNA3.1 (Invitrogen). Vectors containing the coding sequence for human pro TGF-β are described in Young and Murphy-Ullrich, 2004 (Young and Murphy-Ullrich, 2004, J Biol Chem 279, 38032-38039). […]

[2] = tested on: pro TGF-β1; assay: CAGA12-lux luciferase reporter in HEK293T cells co-transfected with pro TGF-β1 vector; format: cell-based, human; details: CAGA12-lux, co-transfection with pro TGF-β1 vector, FIG. 2B, 2C
Excerpt: • The construct for emilin 1 expression was engineered in pCS2 vector (Rupp R. A. et al., 1994, Genes Dev 8, 1311-1323) (for a physical map of the vector, see the site faculty.washington.edu/rtmoon/pcs2+.html) as described (Zanetti M. et al., 2004, Mol Cell Biol 24, 638-650); the vector used for proTGF-β expression in MEF and HEK293T cells is pCDNA3.1 (Invitrogen). Vectors containing the coding sequence for human pro TGF-β are described in Young and Murphy-Ullrich, 2004 (Young and Murphy-Ullrich, 2004, J Biol Chem 279, 38032-38039). The human pro TGF-β cDNA sequence is reported in the data bank (NP_000660; protein 000651). • The vector for Furin/SPC 1 expression is pCDNA3.1 (Invitrogen) • p15 and CAGA 12 promoter fragments are described in Jonk L. J. et al., 1998, J Biol Chem 273, 21145-21152 […]. • Constructs containing Flag sequences are described in Young G. D and Murphy-Ullrich J E, 2004, J Biol Chem 279, 38032-38039. • Constructs containing the Flag epitope (e.g. Flag-EMI-domain-GPI) were prepared as described in Chubet R G et al. Biotechniques 1996; 20(1):136-141 and detected by anti-Flag antibody (Kodak Inc.). • Constructs containing the GPI anchor were prepared as described in the Manual “Current Protocols in Cell Biology” Howard R. Petty Wayne State University, Detroit, Mich.; Juan S. Bonifacino, Mary Dasso, Joe B. Harford, Jennifer Lippincott-Schwartz, and Kenneth M. Yamada (eds.), Copyright C 2003 John Wiley & Sons, Inc. (GPI-anchor). In the construct Flag-EMI domain-GPI, the Flag sequence was inserted at the N-terminus after the signal peptide, while the GPI-anchor sequence was placed at the COOH-terminal end. • The construct emilin 1-KDEL was obtained by inserting the KDEL coding sequence described by Munro S., and Pelham, H. R., 1987, Cell 48, 899-907 upstream the emilin 1 STOP codon. • The construct containing the type II TGF-β receptor with HA epitope was described in Wrana J. L. et al., 1994, Nature 370, 341-347. • supplier of the drugs used: SP600125 (Calbiochem), SB431542 (Tocris). • Purified recombinant LAP and TGF-β1 proteins were purchased from (R&D Systems)
To verify how emilin or the EMI domain can contrast TGF-β1 activity independently from receptor binding, HEK293T cells were transfected with a construct coding luciferase placed under control of a TGF-β activated promoter: CAGA12-lux (Jonk et al., 1998) alone or in combination with a emilin1 expression vector (500 ng) as shown in FIG. 2B. After transfection, cells were treated (black bar) or not treated (white bar) with 5 ng/ml recombinant TGF-1 (lanes 1 and 2). Column bars from 3 to 6 report luciferase expression values in experiments with cells co-transfected with the expression vector for emilin1 (or EMI-domain or emilin1ΔEMI) alone (white bars) or in combination with the vector encoding pro TGF-β1 (black bars). Values show the mean±st. dev.
As further validation of the above observations, HEK293T cells were cotransfected with expression plasmids carrying the cDNAs shown in the summary scheme above the figure, along with CAGA12-lux and CMV-lacZ constructs, and luciferase expression levels were measured.

T1 sequence (P01137 30-390): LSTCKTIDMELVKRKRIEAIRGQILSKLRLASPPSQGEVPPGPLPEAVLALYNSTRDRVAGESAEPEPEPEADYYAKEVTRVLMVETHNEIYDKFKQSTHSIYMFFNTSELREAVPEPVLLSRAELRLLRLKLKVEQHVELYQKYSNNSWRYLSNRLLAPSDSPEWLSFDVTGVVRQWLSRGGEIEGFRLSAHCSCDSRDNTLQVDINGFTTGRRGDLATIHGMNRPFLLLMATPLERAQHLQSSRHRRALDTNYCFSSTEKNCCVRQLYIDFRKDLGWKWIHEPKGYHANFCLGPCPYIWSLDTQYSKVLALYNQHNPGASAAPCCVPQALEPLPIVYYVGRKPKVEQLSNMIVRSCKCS

B1: EMI domain: cysteine-rich domain of emilin-1, residues 55-131, SEQ ID NO 2; in some experiments Flag-tagged and GPI-anchored (protein)
chain: RHRNWCAYVVTRTVSCVLEDGVETYVKYQPCAWGQPQCPQSIMYRRFLRPRYRVAYKTVTDMEWRCCQGYGGDDCAE
modifications: sometimes Flag tag and GPI anchor; homo sapiens
notes: in some experiments Flag-tagged and GPI-anchored
- Interaction with pro TGF-β (co-immunoprecipitation) [1]: interacts specifically; also recorded: interacts only with the intact pro TGF-β molecule
- Effect on luciferase expression induced by pro TGF-β1 [2]: inhibits pro TGF-β

— patent publication US20090036382A1, “TGF-Beta Modulators and Use Thereof” (Universita' Degli Studi Di Padova, priority 2006, published 2009)
